Measurements: patent publication US20210122826A1 (MIT, published 2021)

Target: T1, human CD161 (human, UniProt Q12918 1-225)
T1 construct: UniProt Q12918; also called hCD161; KLRB1
Assay: blocking assay by flow cytometry: 500 nM biCLEC2D on Jurkat hCD161+ cells with 1, 10 or 100 nM antibody, SA-AF647; blocked ligand biCLEC2D; control 500 nM biCLEC2D on Jurkat WT

binding result: binds
B1: KM12.3.2 (antibody, V domains shown)
VH: EVQLVESGGGLVQPGGSLRLSCAASGFTFSSYAMSWIRQAPGKGLEWVSAISGSGGSIYYADSVKGRFTISRDNSKNTLYLQMDSLRAEDTAVYYCARGYSDSYFYGPYYTFDYWGQGTLVTVSS
VL: not shown
